Data from US20240109957A1 (ANNEXON, published 2024).

What was measured:
human complement C1q [1] = molecular target: T1, human complement C1q (Homo sapiens, UniProt P02745 23-245; P02746 28-253; P02747 29-245); assay: Not stated; affinity given in descriptive text
T1 construct: In the assays this was native C1q in normal human serum or plasma; also called Human C1q

human complement C1q [2] = molecular target: T1, human complement C1q; assay: cell-based or functional assay

T1 sequence (P02745 23-245 limits assumed, chain 1 of 3): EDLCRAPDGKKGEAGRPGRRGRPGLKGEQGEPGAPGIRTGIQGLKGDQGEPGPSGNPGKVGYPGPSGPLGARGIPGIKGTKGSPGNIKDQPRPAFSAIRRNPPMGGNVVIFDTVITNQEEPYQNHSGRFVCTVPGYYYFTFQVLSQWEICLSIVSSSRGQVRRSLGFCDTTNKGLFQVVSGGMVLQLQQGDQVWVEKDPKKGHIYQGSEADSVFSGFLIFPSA
T1 sequence (P02746 28-253 limits assumed, chain 2 of 3): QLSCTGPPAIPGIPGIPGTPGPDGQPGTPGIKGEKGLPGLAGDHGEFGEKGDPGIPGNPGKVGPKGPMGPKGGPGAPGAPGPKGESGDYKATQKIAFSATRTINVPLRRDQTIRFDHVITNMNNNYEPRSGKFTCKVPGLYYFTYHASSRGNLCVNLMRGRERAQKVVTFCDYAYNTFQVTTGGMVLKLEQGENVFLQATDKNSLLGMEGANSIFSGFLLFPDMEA
T1 sequence (P02747 29-245 limits assumed, chain 3 of 3): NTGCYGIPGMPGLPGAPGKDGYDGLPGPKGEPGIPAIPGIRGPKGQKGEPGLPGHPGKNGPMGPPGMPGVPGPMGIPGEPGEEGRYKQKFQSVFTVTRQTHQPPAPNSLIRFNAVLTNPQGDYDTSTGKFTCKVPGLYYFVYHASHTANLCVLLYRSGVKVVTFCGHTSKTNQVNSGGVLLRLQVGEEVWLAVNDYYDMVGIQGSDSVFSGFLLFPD

B1: FabA (anti-C1q antibody Fab fragment) (Fab)
heavy: QVQLVQSGAELKKPGASVKVSCKSSGYHFTSYWMHWVKQAPGQGLEWIGVIHPNSGSINYNEKFESRVTITVDKSTSTAYMELSSLRSEDTAVYYCAGERDSTEVLPMDYWGQGTTVTVSSASTKGPSVFPLAPSSKSTSGGTAALGCLVKDYFPEPVTVSWNSGALTSGVHTFPAVLQSSGLYSLSSVVTVPSSSLGTQTYICNVNHKPSNTKVDKKVEPKSCDKTHT
light: DVQITQSPSSLSASLGERATINCRASKSINKYLAWYQQKPGKAPKLLIYSGSTLQSGIPARFSGSGSGTDFTLTISSLEPEDFAMYYCQQHNEYPLTFGQGTKLEIKRTVAAPSVFIFPPSDEQLKSGTASVVCLLNNFYPREAKVQWKVDNALQSGNSQESVTEQDSKDSTYSLSSTLTLSKADYEKHKVYACEVTHQGLSSPVTKSFNRGEC
notes: Heavy chain Fab fragment truncated after the first constant domain of IgG1; also called anti-C1q Fab; anti-C1q monovalent Fab
Human complement C1q [1]
  Kd: 0.01 nM
Human complement C1q [2]
  IC50 for inhibition of complement deposition (C4 and C3d on human RBCs, flow cytometry): ~10 nM
  IC50 for inhibition of hemolysis (CAD-sensitised human RBCs, normal human serum, absorbance at 415 nM): ~10 nM
